{
  "source": "patent US20220378829A1",
  "about": "(CRISPR THERAPEUTICS, published 2022)",
  "binders": {"B1": {"name": "anti-CD70 CAR (CD70B scFv with 41BB), expressed on the surface of gene-edited human T cells (CTX130: TRAC-/β2M-/CD70-/anti-CD70 CAR+ T cells) (other)", "chain": "QVQLVQSGAEVKKPGASVKVSCKASGYTFTNYGMNWVRQAPGQGLKWMGWINTYTGEPTYADAFKGRVTMTRDTSISTAYMELSRLRSDDTAVYYCARDYGDYGMDYWGQGTTVTVSSGGGGSGGGGSGGGGSGDIVMTQSPDSLAVSLGERATINCRASKSVSTSGYSFMHWYQQKPGQPPKLLIYLASNLESGVPDRFSGSGSGTDFTLTISSLQAEDVAVYYCQHSREVPWTFGQGTKVEIKSAAAFVPVFLPAKPTTTPAPRPPTPAPTIASQPLSLRPEACRPAAGGAVHTRGLDFACDIYIWAPLAGTCGVLLLSLVITLYCNHRNRKRGRKKLLYIFKQPFMRPVQTTQEEDGCSCRFPEEEEGGCELRVKFSRSADAPAYQQGQNQLYNELNLGRREEYDVLDKRRGRDPEMGGKPRRKNPQEGLYNELQKDKMAEAYSEIGMKGERRRGKGHDGLYQGLSTATKDTYDALHMQALPPR"}},
  "target": "T1, CD70 on human cancer cell lines (A498, ACHN, SK-OV-3, Hs 766T, NCI-H1975, Calu-1, DU 145, SNU-1, MM.1S, HuT78) (human, UniProt P32970 1-193)",
  "T1 sequence (looked up)": "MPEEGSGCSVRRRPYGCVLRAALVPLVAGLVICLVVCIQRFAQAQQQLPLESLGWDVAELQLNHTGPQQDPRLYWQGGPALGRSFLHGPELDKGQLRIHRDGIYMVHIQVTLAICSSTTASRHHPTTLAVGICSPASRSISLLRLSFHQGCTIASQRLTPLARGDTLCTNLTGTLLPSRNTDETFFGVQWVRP",
  "test": "cell-based or functional assay",
  "data": [
    {"binder": "B1", "values": [
      {"measurement": "cell lysis of A498 cells by TRAC-/β2M-/CD70-/anti-CD70 CAR+ T cells, T cell:A498 ratios 1:1 and 0.5:1, 24 h (Cell titer-Glo)", "result": "> 90", "unit": "%"},
      {"measurement": "cell lysis of A498 cells by TRAC-/β2M-/anti-CD70 CAR+ T cells (2×KO), T cell:A498 ratios 1:1 and 0.5:1, 24 h (Cell titer-Glo)", "result": "< 90", "unit": "%"}
    ]}
  ]
}
